Source: article PMC4416707
Blank lines part the entries; values can stand above or below the substance they belong to.

What was measured:
Test in all cases: SEC; size exclusion chromatography of the purified LOV constructs under dark state conditions; apparent MW compared with the expected monomer MW of 17 kDa
[1] = target: Methylocystis rosea short LOV protein McLOVr (Methylocystis rosea)
[2] = target: McLOVn-TF residues 337-490 (isolated LOV domain of the Methylocystis LOV transcription factor) (Methylocystis Rockwall)
[3] = target: Methylocystis short LOV protein McLOVn (Methylocystis Rockwall)

stoichiometry N [1]: 2
Substance: Methylocystis rosea short LOV protein McLOVr (natural protein)

stoichiometry N [2]: 2
Substance: McLOVn-TF residues 337-490 (isolated LOV domain of the Methylocystis LOV transcription factor) (domain or fragment)

stoichiometry N [3]: 2
Substance: Methylocystis short LOV protein McLOVn (natural protein)
